Results published in article PMC9481538, “The interaction between LC8 and LCA5 reveals a novel oligomerization function of LC8 in the ciliary-centrosome system” (Scientific Reports, 2022).

Key:
[1] = target: sLCA5-WT (LCA5 96-430 with N-terminal MBP and C-terminal 6xHis) (human (cDNA library from HEK293)) (UniProt Q86VQ0)
[2] = target: sLCA5-WT (LCA5 96-430 with N-terminal MBP and C-terminal 6xHis) (human (cDNA library from HEK293)) (UniProt Q86VQ0); test: ITC; MBP-fused LCA5 construct in the cell, LC8 injected, 37 injections of 1 μl; 37 °C, PBS pH 7.4, 1 mM TCEP
[3] = target: sLCA5-ΔCQS (human (cDNA library from HEK293)) (UniProt Q86VQ0); test: as above
Sequence of sLCA5-ΔCQS (human (cDNA library from HEK293)) (Q86VQ0 other isoform, or with tags, fused parts or gaps mutant): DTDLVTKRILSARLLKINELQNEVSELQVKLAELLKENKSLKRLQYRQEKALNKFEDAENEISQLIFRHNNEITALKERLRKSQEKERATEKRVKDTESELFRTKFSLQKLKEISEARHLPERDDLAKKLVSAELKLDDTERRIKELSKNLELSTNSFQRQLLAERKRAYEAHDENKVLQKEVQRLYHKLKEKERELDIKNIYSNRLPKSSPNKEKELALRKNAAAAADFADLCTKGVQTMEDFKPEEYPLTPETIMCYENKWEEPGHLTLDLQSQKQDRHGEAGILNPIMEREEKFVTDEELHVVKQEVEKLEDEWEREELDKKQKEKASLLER

[4] = target: sLCA5-ΔVQT (human (cDNA library from HEK293)) (UniProt Q86VQ0); test: as above
Sequence of sLCA5-ΔVQT (human (cDNA library from HEK293)) (Q86VQ0 other isoform, or with tags, fused parts or gaps mutant): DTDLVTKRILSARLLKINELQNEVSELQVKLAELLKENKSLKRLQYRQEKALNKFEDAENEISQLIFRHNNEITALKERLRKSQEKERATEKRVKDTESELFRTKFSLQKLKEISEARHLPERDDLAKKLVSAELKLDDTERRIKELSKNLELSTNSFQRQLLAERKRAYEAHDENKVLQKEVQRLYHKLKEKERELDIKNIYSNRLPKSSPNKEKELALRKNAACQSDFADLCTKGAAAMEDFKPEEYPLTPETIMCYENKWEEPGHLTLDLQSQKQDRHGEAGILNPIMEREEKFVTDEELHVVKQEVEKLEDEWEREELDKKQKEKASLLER

[5] = target: FITC-labelled BMF (Bcl-2-modifying factor) peptide (…); test: fluorescence polarisation; direct titration of 50 nM FITC-BMF peptide with LC8; 25 °C, PBS, 2 mM TCEP, 0.05% Brij
[6] = target: Dynein light chain LC8 (DYNLL2), 6xHis-tagged (UniProt Q96FJ2); test: SEC; Superose 6 Increase 10/300, DPBS with 200 μM TCEP; LC8 or sLCA5-WT alone; masses estimated from a calibration curve
[7] = target: sLCA5-WT (LCA5 96-430 with N-terminal MBP and C-terminal 6xHis) (human (cDNA library from HEK293)) (UniProt Q86VQ0); test: SEC; Superose 6 Increase 10/300, DPBS with 200 μM TCEP; 30 μM LCA5 construct with 150 μM LC8, injected immediately or after 60 min at 37 °C; fractions analysed by SDS-PAGE and densitometry
[8] = target: sLCA5-ΔCQS (human (cDNA library from HEK293)) (UniProt Q86VQ0); test: as above
[9] = target: sLCA5-ΔVQT (human (cDNA library from HEK293)) (UniProt Q86VQ0); test: as above

Sequence of Dynein light chain LC8 (DYNLL2), 6xHis-tagged (from UniProt Q96FJ2 1-89) (natural protein) (Q96FJ2 whole entry): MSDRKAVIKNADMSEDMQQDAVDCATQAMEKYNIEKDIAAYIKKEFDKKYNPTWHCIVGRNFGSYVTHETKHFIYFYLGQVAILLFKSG
Sequence of sLCA5-WT (LCA5 96-430 with N-terminal MBP and C-terminal 6xHis) (human (cDNA library from HEK293)) (Q86VQ0 96-430): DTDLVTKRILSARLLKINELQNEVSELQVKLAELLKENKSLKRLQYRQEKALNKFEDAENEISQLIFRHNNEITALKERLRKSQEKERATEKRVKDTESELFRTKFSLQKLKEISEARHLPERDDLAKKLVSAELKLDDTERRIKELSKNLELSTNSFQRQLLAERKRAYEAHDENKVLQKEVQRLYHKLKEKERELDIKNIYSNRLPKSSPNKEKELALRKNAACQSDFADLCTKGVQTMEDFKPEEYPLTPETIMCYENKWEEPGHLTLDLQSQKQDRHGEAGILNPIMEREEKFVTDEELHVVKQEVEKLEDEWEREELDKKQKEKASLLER

increase in the melting temperature of sLCA5-WT in complex with LC8 (CD thermal denaturation at 222 nm, 10-80 °C; 1.2 μM LCA5, 6 μM LC8) [1]: 5 °C | dH [2]: -49.4 kJ/mol | stoichiometry N [2]: 1 LCA5:LC8 | dH [3]: -36.1 kJ/mol | stoichiometry N [3]: 2 LCA5:LC8 | dH [4]: -52.3 kJ/mol | stoichiometry N [4]: 2 LCA5:LC8 | LC8 concentration at 80% saturation of the BMF peptide [5]: 12 µM | stoichiometry N [6]: 2 | molar ratio LCA5:LC8 in the LCA5 peak [7]: 1 LCA5:LC8 | molar ratio LCA5:LC8 in the intermediate fraction [7]: 1 LCA5:LC8 | molar ratio sLCA5:LC8 in the oligomeric (void) fraction [7]: 0.5 LCA5:LC8 | molar ratio LCA5:LC8 in the LCA5 peak [8]: 2 LCA5:LC8 | molar ratio sLCA5:LC8 in the oligomeric (void) fraction [8]: 1 LCA5:LC8 | molar ratio LCA5:LC8 in the earlier eluted part of the LCA5 peak [9]: 2 LCA5:LC8 | molar ratio LCA5:LC8 in the later part of the LCA5 peak [9]: 1 LCA5:LC8
Substance: Dynein light chain LC8 (DYNLL2), 6xHis-tagged (from UniProt Q96FJ2 1-89) (natural protein)
